Here are results for 2 molecules from paper PMC12995615 (Frontiers in Immunology, 2026).

The assay concerns the target Influenza H1 (A/Brisbane/59/2007) HA Clamp (Influenza A virus …, UniProt D5F1Q8, stabilised). The experiment in a line: ELISA. To be noted: both partners purified.

B1: recombinant bat antibody C05 with human signal peptide (bat C05Hsp) (antibody, V domains shown)
VH: QVQLQESGGGLVQPGESLRLSCVGSGSSFGESTLSYYAVSWVRQAPGKGLEWLSIINAGGGDIDYADSVEGRFTISRDNSKETLYLQMTNLRVEDTGVYYCAKHMSMQQVVSAGWERADLVGDAFDVWGQGTMVTVSS
VL: DIQLTQSPSSLSASVGDRVTLTCQASQDIRKFLNWYQQKPGKGPKLLIYDASNLQRGVPSRFSGGGSGTDFTLIISSLQPEDVGTYYCQQYDGLPFTFGGGTKVVIK
notes: also called bC05Hsp; ReBA
Consider B1, for which the Kd turned out to be 0.25 nM.

B2: recombinant bat antibody C05 with bat signal peptide (bC05Bsp) (antibody, V domains shown)
VH: B1 VH
VL: B1 VL
notes: also called ReBA
The molecule B2 yielded a dissociation constant Kd of 0.39 nM. Compared with the last molecule, the Kd is about 1.6-fold higher.
